This test has as its target Hsp90 yeast homologue (Hsc82) (yeast) (UniProt P15108).

This note sets out measurements from PMC5921052.

Sequence of UniProt P15108 (P15108 whole entry): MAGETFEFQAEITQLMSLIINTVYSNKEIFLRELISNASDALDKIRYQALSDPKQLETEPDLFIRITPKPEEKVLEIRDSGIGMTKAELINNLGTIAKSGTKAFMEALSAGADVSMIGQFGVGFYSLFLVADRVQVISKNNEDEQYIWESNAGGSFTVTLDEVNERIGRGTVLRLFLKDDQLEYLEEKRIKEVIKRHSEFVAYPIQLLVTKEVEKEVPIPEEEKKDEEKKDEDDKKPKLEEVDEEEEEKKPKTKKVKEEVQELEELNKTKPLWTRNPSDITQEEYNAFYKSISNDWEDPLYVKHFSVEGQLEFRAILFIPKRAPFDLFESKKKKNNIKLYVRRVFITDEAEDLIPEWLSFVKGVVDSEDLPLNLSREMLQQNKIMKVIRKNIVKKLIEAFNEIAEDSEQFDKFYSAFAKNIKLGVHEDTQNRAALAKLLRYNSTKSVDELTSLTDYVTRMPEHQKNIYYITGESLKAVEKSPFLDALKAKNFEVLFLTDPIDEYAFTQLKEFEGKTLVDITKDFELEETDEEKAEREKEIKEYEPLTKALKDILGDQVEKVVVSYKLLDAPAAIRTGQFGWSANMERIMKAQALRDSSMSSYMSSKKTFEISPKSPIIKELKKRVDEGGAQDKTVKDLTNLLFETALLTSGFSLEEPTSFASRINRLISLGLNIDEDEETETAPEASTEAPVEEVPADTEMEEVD

“model client protein Δ131Δ (domain or fragment)” registered an other of 1.8 fold.
